From the supplement of paper PMC7125110 come the findings set out here.

The labels stand for the following.
B1: glmS ribozyme (parent)
chain: AUAAAAGCGCCAGAACUACAGAAAUGUAGUUGACGAGGAGGAGGUUUAUCGAAUUUUCGGCGGAUGCCUCCAAA

± gives the standard error. This sample holds only a part of the variants without activity.

Variants of B1 are the subject of the first data set. Description: self-cleavage kobs at 2500 uM GlcN6P; higher = faster cleavage; RNA array. The following applies: with glucosamine-6-phosphate. The method, boiled down: (§1)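 Tracking of barcoded ribozyme variants used a hybridised Cy3 probe at 37 °C, after in situ transcription by E. coli RNA polymerase on sequenced MiSeq chips. The flowed solution held 40 μM to 10 mM glucosamine-6-phosphate in HEPES/KCl/Mg(OAc)2 buffer, and imaging ran over ~14 h. kobs was taken from exponential decay fits of normalised per-tile medians, and kcat and KM from weighted Michaelis–Menten fits.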
In the case of AUAAAAGCGGCAGAAGUACAGAAAUGUAGUUGACAAGGAGGAGGUUUAUCGAUUUUUCGGCGGCUGCCUCCAAA, the “self-cleavage kobs at 2500 uM GlcN6P” value was < 1e-05 s⁻¹.
The same measure, in the same setting: the same measure for AUAAAAGCGCCAGAACUACAGAAAUGUAGUUGAAGGGUAGGAGGUUUAUCGAAUUUUCGGCGGAUGCCGCCAAA: 4.35e-05 ± 2e-05 s⁻¹.
Regarding AUAAAAGCGCCAGGACUACAGAAAUGUAGUUGACGAGAAAGAGGUUUAUCGAAUUUUCGGCGGAUGCCUCCAAA, the “self-cleavage kobs at 2500 uM GlcN6P” value was < 1e-05 s⁻¹.
Consider AUAAAAUCGCCAGAACUACAGAAAUGUAGUUGAUGAGGAGGAGGUUUAUCGAAUUUUCGUCGGGUGCCUCCAAA, for which the “self-cleavage kobs at 2500 uM GlcN6P” value is < 1e-05 s⁻¹.
As to AUAAAAGCGAUAGAACUACAGAAAUGUAGUUGACGCGGAGGAGGUUUAUCGAAUUUUCGGCGGAUGCCUCCAAA, the “self-cleavage kobs at 2500 uM GlcN6P” value was < 1e-05 s⁻¹.
With AUAAAAGCGCCAGAACUACAGAAAUGUAGUGGACGAGGAGGAGGUUUAUCGAUUUUUCGGCGGAUGCCUACAAA, the “self-cleavage kobs at 2500 uM GlcN6P” value worked out at 0.000207 ± 6.4e-05 s⁻¹.
Consider AUAAAAGCGCCAGAGCUACAGAAAUGUAGUUGACCAUGAGGACGUUUAUCGAAUUUUCGGCGGAUGCCUCCAAA, for which the “self-cleavage kobs at 2500 uM GlcN6P” value is < 1e-05 s⁻¹.
As to AUAAAAGCGCCAGAACUACAGAAAUGUAGUUGCCGAAGAGGAGGUUUAUCGAAUUUUCGCCGGAUGCCUCCAAA, the “self-cleavage kobs at 2500 uM GlcN6P” value was < 1e-05 s⁻¹.
As to AUAAAAGAGCCAGAACUACAGAAAUGUAGUUGACGAGGGGGAGGUUUUUCGAAUUUUCGGCGGAUGCCUCCAAA, the “self-cleavage kobs at 2500 uM GlcN6P” value is < 1e-05 s⁻¹.
In the case of AUAAAACCGCCAGAACUACAGAAAUGUAGUUGACGAGGAGGGGGUUUAUCGAAUUUUCGGCGGAUGCCGCCAAA, the “self-cleavage kobs at 2500 uM GlcN6P” value is < 1e-05 s⁻¹.
Take AUAAAAGCGCCAGAACUACAGAAAUGUAGUUGACCAGUAGGAGGUUUAUCGAAUUUUCCGCGGAUGCCGCCAAA: the “self-cleavage kobs at 2500 uM GlcN6P” value was < 1e-05 s⁻¹.
Consider AUAAAAGCGCCAGAACUACAGAAAUGUAGCAGACGGGGAGGAGGUUUAUAGAAUUUGCGGCGGAUGCCUCCAAA, for which the “self-cleavage kobs at 2500 uM GlcN6P” value was < 1e-05 s⁻¹.
Consider AUAAAUGUGCCAGAACUACAGAAAUGUAGUUGACGAGGAGGAGGUUUAUCGAAUUUUGGGCGGAUGCCUCCAAA, for which the “self-cleavage kobs at 2500 uM GlcN6P” value was < 1e-05 s⁻¹.
On to AUAAAAUCGGCCGAACUACAGAAAUGUAGUUGACGAGGAGGCGGUUUAUCGAAUUUUCGGCUGAUGCCUCCAAA, for which the “self-cleavage kobs at 2500 uM GlcN6P” value was < 1e-05 s⁻¹.
On the same count and under the same terms, the figure for AUAAAAGCGCCAGCACUACAGAAAUGUAGUUGACGAGGAGGAGGUUUAUCGAAAUUUCCGCGGAUGCCUCUAAA is < 1e-05 s⁻¹.
Take AUAAAAUCGUCAGAACUACAGAAAUGUAGUUGACGUGGAGGAGUUUUAUCGAAAUUUCGGCGGAUGCCUCCAAA: the “self-cleavage kobs at 2500 uM GlcN6P” value is < 1e-05 s⁻¹.
With AUAAAAGCGCCAGAACUACAGAAAUGUAGUAGACGAGGAGUAGGUUUAUCGAAUUUUCUGCGGAUGCCUCCAAA, the “self-cleavage kobs at 2500 uM GlcN6P” value was < 1e-05 s⁻¹.
Consider AUAAAAGAGCUAGAACUACAGAAAUGUAGUUGAGGAGAAGGAGGUUUAUCGAAUUUUCGGCGGAUGCCUCCAAA, for which the “self-cleavage kobs at 2500 uM GlcN6P” value is < 1e-05 s⁻¹.
In the case of AUAAAAGCGCCAGAAGUACAGAAAUGUAGUUGACGAGGAGGAGGUUUAUAGAAUUUUCGGCGGAUGCCUACAAA, the “self-cleavage kobs at 2500 uM GlcN6P” value turned out to be 8.7e-05 ± 2.4e-05 s⁻¹.
With AUAAAAGUGCCAGAACUACAGAAAUGUAGUUGAUGAGGAGGAGGUUUAUCGAAUUUUCGGCGCAUGCCUCCAAA, the “self-cleavage kobs at 2500 uM GlcN6P” value is < 1e-05 s⁻¹.
The same measure, in the same setting: the figure for AUAAAAGCGCCAGAACUACAGAAAUGUAGUUGCCGAGGAGGAGGUUUAUCGAGUGUUCGGCGGAUGCCUCCAAA is 0.000103 ± 2.8e-05 s⁻¹; for AUAAAAGCGGCAGAACUACAGAAAUGUAGUUGACGAGGAGGAGGUAUAUCGAAUUGUCGGCGGAUGCCUCCAAA it is < 1e-05 s⁻¹; for AUAAAAGCGCAAGAACUACAGAAAUGUAGUUGACGAGGACGAGGUUUAUCGAAUUUUCGGCAGAUGCUUCCAAA it is < 1e-05 s⁻¹.
For AUAAAAGCGCCAAAACUACAGAAAUGUAGUUGACGAGGUGGAGGUUUAUCGAAUUUUCGGCGGUUGCCUCCAAA, the “self-cleavage kobs at 2500 uM GlcN6P” value was < 1e-05 s⁻¹.
The same measure, in the same setting: the same measure for AUAAAAGCGCCAGAACUACAGAAAUGUAGUUAACGAGGAGCAGGUUUAUCGAAUUUUCGGCGGAUGCUUCCAAA: < 1e-05 s⁻¹.
AUAAAAGGGCCAGAACUACAGAAAUGUAGUUGACUAGGAGGAGGUUUAUCGGAUUUUCGGAGGAUGCCUCCAAA: the “self-cleavage kobs at 2500 uM GlcN6P” value was < 1e-05 s⁻¹.
On to AUAAAAGCGCCAGAACUACAGAAAUGUAGUUGACGAGGAGUAGGUUUAUCGAAAAAUCGGCGGAUGUCUCCAAA, for which the “self-cleavage kobs at 2500 uM GlcN6P” value was < 1e-05 s⁻¹.
For the variant AUAAAAGCGCCAGGACUACAGAAAUGUAGUUUACGAGGAGGAGGAUUAUCGAAUUUUCGGCGGAUGCCUCCAAA, the “self-cleavage kobs at 2500 uM GlcN6P” value turned out to be 0.00147 ± 0.00059 s⁻¹.
Regarding AUAAAAGCGCCAGAACUACAGAAAUGUAGUUGACGAGGAGGAGGAUUGUCGAAUUUUCGGCGGAUGGCUCCAAA, the “self-cleavage kobs at 2500 uM GlcN6P” value came out at 8.99e-05 ± 3.1e-05 s⁻¹.
As to AUAAAAGCGCCCGAAUUACAGAAAUGUAGUUGACGAGGAGGAGGUUUAUUGAAUUUUCGGCGGAUGCCUCCAAA, the “self-cleavage kobs at 2500 uM GlcN6P” value came to 3.9e-05 ± 1.5e-05 s⁻¹.
Take AUAAAAGCGGCAGAACUACAGAAAUGUAGUUGACGAGUAGGAGGUUUAUCGAAUUUUCGGCGGAUGCCUCCAAA: the “self-cleavage kobs at 2500 uM GlcN6P” value was < 1e-05 s⁻¹.
The same measure, in the same setting: the same measure for AUAAAAUCGCCAGAACUACAGAAAUGUAGUUGACGUGGAGGAGGUUUAUCGAAUUUUCGGCGGAUGCUUCCAAA: < 1e-05 s⁻¹; for AUAAAAAUGCCAGAACUACAGAAAUGUAGUUGACGGGGAGGAGGUUUAUCGAAUUUUCGUCGGAUGCCUCCAAA: < 1e-05 s⁻¹.
AUAAAAGCGCAAGAACUACAGAAAUGUAGUUGACGAGGAGGUAGUUUAUCGAAUUUUCGGCGGAUGCCUCCAAA: the “self-cleavage kobs at 2500 uM GlcN6P” value was < 1e-05 s⁻¹.

In another data set the parent is B1. The data set can be described thus: self-cleavage kobs at 10000 uM GlcN6P; higher = faster cleavage; RNA array. The conditions noted are these: with glucosamine-6-phosphate. The method, boiled down:
as §1
For AUAAAAUCGCCAGAACUACAGAAAUGUAGUUGAUGAGGAGGAGGUUUAUCGAAUUUUCGUCGGGUGCCUCCAAA, the “self-cleavage kobs at 10000 uM GlcN6P” value was < 1e-05 s⁻¹.
Same read-out and setting: the figure for AUAAAAGCGCCAGCACUACAGAAAUGUAGUUGACGAGGAGGAGGUUUAUCGAAAUUUCCGCGGAUGCCUCUAAA is < 1e-05 s⁻¹; for AUAAAAGCGCCAGAACUACAGAAAUGUAGUUGCCGAGGAGGAGGUUUAUCGAGUGUUCGGCGGAUGCCUCCAAA it is 0.000163 ± 2.9e-05 s⁻¹.
